These results are taken from US20120207676 (published 2012).

Sequences and labels used below:
B1: NT-20.3 (peptide)
chain: KPRRPYIL
modifications: NT(6-13) analogue, N-methylated Pro7-Arg8 bond, Tle12
B2: DOTA(In)-NT-20.3 (peptide)
chain: KPRRPYIL
modifications: not fully specified; N-methylated Pro7-Arg8 bond, Tle12; DOTA(In) at Lys6
B3: DOTA(Ga)-NT-20.3 (peptide)
chain: KPRRPYIL
modifications: not fully specified; N-methylated Pro7-Arg8 bond, Tle12; DOTA(Ga) at Lys6
B4: DOTA(Y)-NT-20.3 (peptide)
chain: KPRRPYIL
modifications: not fully specified; N-methylated Pro7-Arg8 bond, Tle12; DOTA(Y) at Lys6
B5: DTPA(In)-NT-20.3 (peptide)
chain: KPRRPYIL
modifications: not fully specified; N-methylated Pro7-Arg8 bond, Tle12; DTPA(In) at Lys6

T1 sequence (P30989 whole entry): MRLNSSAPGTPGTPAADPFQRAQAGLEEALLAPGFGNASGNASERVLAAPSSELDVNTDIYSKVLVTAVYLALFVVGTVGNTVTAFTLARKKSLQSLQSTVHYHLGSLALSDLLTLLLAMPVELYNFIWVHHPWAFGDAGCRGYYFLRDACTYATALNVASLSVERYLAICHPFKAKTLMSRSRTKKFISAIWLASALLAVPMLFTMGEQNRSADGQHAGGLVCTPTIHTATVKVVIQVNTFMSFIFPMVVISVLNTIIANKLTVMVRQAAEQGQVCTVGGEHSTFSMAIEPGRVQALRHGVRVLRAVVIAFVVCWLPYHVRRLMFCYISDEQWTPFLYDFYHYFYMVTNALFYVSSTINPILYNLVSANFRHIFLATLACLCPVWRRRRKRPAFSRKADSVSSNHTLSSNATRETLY

One experiment has as its target T1, Neurotensin receptor NTS1 (HT29 cells/membranes) (human, UniProt P30989). The experiment in a line: competition, HT29 cells.
The molecule B1 came in with a concentration for half-maximal inhibition (IC50) of 2.2 nM.

The molecule B2 displayed an IC50 of 14.9 nM. Compared with the last molecule, the IC50 is about 6.8-fold higher. As to B3, the IC50 is 13.9 nM. Still for that read-out and setting: to B4 belongs 7 nM; to B5, 15.9 nM.

In the next experiment the target is T1, Neurotensin receptor NTS1 (HT29 …). The experiment in a line: competition, HT29 membranes.
As for B1, the Ki came to 0.16 nM. Still for that read-out and setting: to B5 belongs 2.24 nM.
